The source of these data is paper PMC4631893, “Pseudomonas aeruginosa Exopolyphosphatase Is Also a Polyphosphate: ADP Phosphotransferase” (Enzyme Research, 2015).

Data set [1] has as its system Nc1ncnc2c1ncn2[C@@H]1O[C@H](COP(=O)(O)OP(=O)(O)O)[C@@H](O)[C@H]1O. Put plainly: phosphotransferase activity, ATP by luciferin-luciferase. It counts as biochemical, Pseudomonas aeruginosa. The note with it: polyP25 or polyP65 as phosphate donor, 5 mM Mg2+, Tris-HCl pH 8.0, 37°C, one rounded value for both variants and both polyP, data not shown.
The target of a further data set is T1, paPpx(1–506) (Pseudomonas aeruginosa, UniProt Q9ZN70).
T1 construct: gene ppx
T1 sequence (Q9ZN70 whole entry): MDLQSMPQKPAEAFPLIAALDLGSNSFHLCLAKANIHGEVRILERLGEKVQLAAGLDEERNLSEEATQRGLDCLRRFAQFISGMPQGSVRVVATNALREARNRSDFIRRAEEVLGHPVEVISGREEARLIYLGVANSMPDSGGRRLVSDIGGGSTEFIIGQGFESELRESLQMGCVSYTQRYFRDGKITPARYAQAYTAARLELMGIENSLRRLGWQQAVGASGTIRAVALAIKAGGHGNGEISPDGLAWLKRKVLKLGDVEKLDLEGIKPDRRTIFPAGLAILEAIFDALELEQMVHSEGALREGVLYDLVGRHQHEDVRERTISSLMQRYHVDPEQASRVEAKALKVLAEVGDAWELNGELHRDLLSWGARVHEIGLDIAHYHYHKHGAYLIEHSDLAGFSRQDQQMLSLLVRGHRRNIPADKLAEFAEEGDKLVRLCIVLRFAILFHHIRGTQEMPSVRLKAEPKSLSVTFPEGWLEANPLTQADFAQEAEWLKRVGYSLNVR
The note with it: 8 μM polyP65, 5 mM Mg2+, Tris-HCl pH 8.0, 37°C; nonessential activator, sigmoid curve.

For “N-paPpx(1–314) (Pseudomonas aeruginosa PAO1)”, in data set [1], the Km was 90 µM.

As to “paPpx(1–506) (Pseudomonas aeruginosa PAO1)”, the Km in data set [1] was 90 µM.

Take `N` [NH4^+]: the “K 0.5(app)NH4^+” value on paPpx(1–506) came to 10 ± 0.4 mM.

As usually defined, the Km is the substrate concentration at which the rate is half of its maximum.
